In patent US20260167959A1, “APTAZYME-BASED REGULATABLE GENE EXPRESSION SYSTEMS” (REJUVENATE BIO INC, priority 2022, published 2026):
Residue numbers refer to the chain shown, from its start.

B1: RA230 (nucleic acid)
DNA: GCGCGTCCTGAGAATACCAGCATCGTCTTGATGCCCTTGGAAGTCTCGGATTCGCGGAAACGCGTACATCCAGCTGACGAGTCCCAAATAGGACGAAACGCGC
modifications: expressed or natural sequence
B2: RA227 (nucleic acid)
DNA: GCGCGTCCGAGAATACCAGCATCGTCTTGATGCCCTTGGAAGTCTCGCTGGATTCGCGGAAACGCGTACATCCAGCTGACGAGTCCCAAATAGGACGAAACGCGC
modifications: expressed or natural sequence
B3: RA231 (nucleic acid)
DNA: GCGAGAATACCAGCATCGTCTTGATGCCCTTGGAAGTCTCGCGTCCTGGATTCGCGGAAACGCGTACATCCAGCTGACGAGTCCCAAATAGGACGAAACGCGC
modifications: expressed or natural sequence
B4: RA233 (nucleic acid)
DNA: B3 DNA with G3A, A4G, G5T, A6G, A34C, T37C, C38A, T39C, C40T
modifications: expressed or natural sequence
B5: RA228 (nucleic acid)
DNA: GCGCGTCCTGGATTCGCGGAAACGCGTACATCCAGCTGGGAATACCAGCATCGTCTTGATGCCCTTGGAAGTCCACGAGTCCCAAATAGGACGAAACGCGC
modifications: chemistry not given here
B6: RA226 (nucleic acid)
DNA: GCGCGTCCTGGATTCGCGGAAACGCGTACATCCAGCTGAAGTGATACCAGCATCGTCTTGATGCCCTTGGCAGCACTCGAGTCCCAAATAGGACGAAACGCGC
modifications: expressed or natural sequence
B7: RA225 (nucleic acid)
DNA: GCGCGTCCTGGATTCGCGGAAACGCGTACATCCAGCTGACGAGTCCCAAATAAGAATACCAGCATCGTCTTGATGCCCTTGGAAGTCTGGACGAAACGCGC
modifications: expressed or natural sequence
B8: RA234 (nucleic acid)
DNA: GCGCGTCCTGGATTCGCGGAAACGCGTACATCCAGCTGACGAGTCCCAAATAGGACGAAACCGGAATACCAGCATCGTCTTGATGCCCTTGGAAGTCCGGCGC
modifications: expressed or natural sequence
B9: RA232 (nucleic acid)
DNA: GCCCGGAATACCAGCATCGTCTTGATGCCCTTGGAAGTCCGGGCGTCCTGGATTCGCGGAAACGCGTACATCCAGCTGACGAGTCCCAAATAGGACGAAACGCGC
modifications: expressed or natural sequence
B10: RA022 (nucleic acid)
DNA: GCGCGTCCTGGATTCGCGGAAACGCGTACAAGTGATACCAGCATCGTCTTGATGCCCTTGGCAGCACTTCCAGCTGACGAGTCCCAAATAGGACGAAACGCGC
modifications: expressed or natural sequence
B11: RA229 (nucleic acid)
DNA: GCGCCGGAATACCAGCATCGTCTTGATGCCCTTGGAAGTCCGGCGTCCTGGATTCGCGGAAACGCGTACATCCAGCTGACGAGTCCCAAATAGGACGAAACGCGC
modifications: expressed or natural sequence

The molecules below were run on Renilla luciferase RNA (assay: Barcoded aptazyme variant library screen: un-cleaved Renilla luciferase RNA by barcode read counts, HEK293-T cells). Conditions: un-cleaved Renilla luciferase RNA, HEK293-T cells cultured with 1 mM theophylline (ON) over without theophylline (OFF); barcode read counts, triplicate.
Type: cell-based
How it was run: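 Aptazyme variants (seven theophylline aptamers inserted after each T3H48 ribozyme nucleotide, 9-nt barcoded) cloned into the 3′ UTR of Renilla luciferase in psiCHECK-2; cells cultured ± theophylline, in triplicate. RNA and DNA barcodes amplified and sequenced; normalized read counts gave un-cleaved RNA fraction and ON/OFF fold-change.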
B1 was tested, and the “Fold change in RNA expression between the ON state and the OFF state” value (from here on “Fold change”) was 1.1 fold.
B2 was tested, and the “Fold change” value was 1.1 fold.
B3 was tested, and the “Fold change” value was 1.1 fold.
For B4, the “Fold change” value was 1.1 fold.
In the case of B5, the “Fold change” value is reported as 1.1 fold.
With B6 the “Fold change” value was 1.1 fold.
B7 was tested, and the “Fold change” value was 1.1 fold.
For B8, the “Fold change” value was 1.1 fold.
For B9, the “Fold change” value was 1.1 fold.
For B10, the “Fold change” value was 2.6 fold.
With B11 the “Fold change” value was 1.1 fold.
